How the values were obtained:
[1] = molecular target: FGFR1 (UniProt P11362); experiment: phosphorylation enrichment, bacterial display (enrichment ratio); higher = better substrate or ligand; peptides without Tyr show the background
[2] = molecular target: Fyn (UniProt P06241); experiment: as above
[3] = molecular target: FGFR3 (UniProt P22607); experiment: as above
[4] = molecular target: Hck (UniProt P08631); experiment: as above
[5] = molecular target: EPHB2 (UniProt P29323); experiment: as above
[6] = molecular target: EPHB1 (UniProt P54762); experiment: as above
[7] = molecular target: Jak2 (UniProt O60674); experiment: as above
[8] = tested on: c-Abl (mouse); experiment: as above
[9] = tested on: AncSZ; experiment: as above
[10] = tested on: Fer (mouse); experiment: as above
[11] = molecular target: MERTK (UniProt Q12866); experiment: as above
[12] = molecular target: Fes (UniProt P07332); experiment: as above
[13] = tested on: c-Src; experiment: as above
[14] = molecular target: c-Src SH2; experiment: SH2 binding enrichment of the phosphorylated peptide, bacterial display (enrichment ratio); higher = better substrate or ligand; peptides without Tyr show the background
[15] = molecular target: SHP2-C SH2; experiment: as above
[16] = molecular target: Grb2 SH2 (UniProt P62993); experiment: as above
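Throughout, for SH2 binding enrichment of the phosphorylated peptide, bacterial display: peptide library displayed on the E. coli surface as eCPX fusions, selected cells deep-sequenced, score is each peptide's frequency after selection divided by its frequency in the input.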
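Throughout, for phosphorylation enrichment, bacterial display: 11-residue human phosphosite peptides and single-mutation variants displayed on the E. coli surface, counted by deep sequencing, each peptide's frequency after selection divided by its frequency in the unselected input library; frequency after pTyr selection over input frequency; kinase dosed for 20-30% of maximal phosphorylation in three min.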

Chain of Fes (P07332 whole entry, looked up): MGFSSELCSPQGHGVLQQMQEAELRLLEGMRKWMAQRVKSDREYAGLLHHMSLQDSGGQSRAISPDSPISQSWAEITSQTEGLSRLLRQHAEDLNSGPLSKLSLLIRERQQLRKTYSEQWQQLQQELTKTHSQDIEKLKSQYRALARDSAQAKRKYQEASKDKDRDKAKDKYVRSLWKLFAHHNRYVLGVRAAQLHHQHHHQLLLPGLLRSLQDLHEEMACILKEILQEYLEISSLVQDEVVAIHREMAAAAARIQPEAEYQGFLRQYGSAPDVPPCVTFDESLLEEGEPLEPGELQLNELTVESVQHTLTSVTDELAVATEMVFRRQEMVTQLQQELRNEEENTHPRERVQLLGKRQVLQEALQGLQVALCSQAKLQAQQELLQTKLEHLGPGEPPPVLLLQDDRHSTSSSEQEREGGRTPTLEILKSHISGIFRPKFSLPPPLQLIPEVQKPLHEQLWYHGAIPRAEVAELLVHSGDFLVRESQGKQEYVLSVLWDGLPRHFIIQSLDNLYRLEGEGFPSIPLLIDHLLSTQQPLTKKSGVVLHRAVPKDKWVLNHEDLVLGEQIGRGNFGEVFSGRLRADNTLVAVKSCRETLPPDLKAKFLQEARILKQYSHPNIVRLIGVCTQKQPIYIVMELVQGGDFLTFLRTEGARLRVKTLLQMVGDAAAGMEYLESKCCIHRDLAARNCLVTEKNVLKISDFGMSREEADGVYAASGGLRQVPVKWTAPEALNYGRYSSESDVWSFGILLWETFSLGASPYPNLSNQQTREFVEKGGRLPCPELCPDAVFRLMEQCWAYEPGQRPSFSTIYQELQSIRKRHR
Chain of Jak2 (O60674 whole entry, looked up): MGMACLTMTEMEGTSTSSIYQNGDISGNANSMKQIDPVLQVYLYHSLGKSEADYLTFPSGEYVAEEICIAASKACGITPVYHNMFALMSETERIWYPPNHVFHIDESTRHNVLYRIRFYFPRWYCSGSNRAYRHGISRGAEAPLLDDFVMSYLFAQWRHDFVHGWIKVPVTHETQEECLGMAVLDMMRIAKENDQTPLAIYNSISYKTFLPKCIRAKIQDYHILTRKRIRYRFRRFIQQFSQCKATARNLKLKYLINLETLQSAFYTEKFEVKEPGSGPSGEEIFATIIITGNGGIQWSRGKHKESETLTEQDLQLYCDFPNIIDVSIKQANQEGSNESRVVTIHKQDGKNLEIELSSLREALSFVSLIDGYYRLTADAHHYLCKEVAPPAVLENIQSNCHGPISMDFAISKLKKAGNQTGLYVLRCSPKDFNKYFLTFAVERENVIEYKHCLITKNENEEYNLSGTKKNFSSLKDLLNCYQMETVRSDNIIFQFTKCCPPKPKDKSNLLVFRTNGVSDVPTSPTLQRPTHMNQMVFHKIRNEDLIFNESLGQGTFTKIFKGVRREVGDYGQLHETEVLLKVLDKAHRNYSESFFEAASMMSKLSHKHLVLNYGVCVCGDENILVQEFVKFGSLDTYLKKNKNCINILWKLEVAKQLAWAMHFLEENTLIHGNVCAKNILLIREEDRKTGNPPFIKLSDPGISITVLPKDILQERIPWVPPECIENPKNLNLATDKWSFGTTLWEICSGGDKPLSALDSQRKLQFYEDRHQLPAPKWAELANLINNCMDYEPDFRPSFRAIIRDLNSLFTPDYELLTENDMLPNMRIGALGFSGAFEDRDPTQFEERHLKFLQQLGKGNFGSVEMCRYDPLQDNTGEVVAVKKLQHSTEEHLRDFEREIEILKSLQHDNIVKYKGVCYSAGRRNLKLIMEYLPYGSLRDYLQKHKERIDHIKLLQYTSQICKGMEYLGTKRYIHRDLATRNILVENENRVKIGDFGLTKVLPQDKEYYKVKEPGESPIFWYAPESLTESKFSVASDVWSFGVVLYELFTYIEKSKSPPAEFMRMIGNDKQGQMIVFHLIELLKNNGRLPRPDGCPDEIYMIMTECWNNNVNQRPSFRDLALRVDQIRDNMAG
Chain of FGFR3 (P22607 whole entry, looked up): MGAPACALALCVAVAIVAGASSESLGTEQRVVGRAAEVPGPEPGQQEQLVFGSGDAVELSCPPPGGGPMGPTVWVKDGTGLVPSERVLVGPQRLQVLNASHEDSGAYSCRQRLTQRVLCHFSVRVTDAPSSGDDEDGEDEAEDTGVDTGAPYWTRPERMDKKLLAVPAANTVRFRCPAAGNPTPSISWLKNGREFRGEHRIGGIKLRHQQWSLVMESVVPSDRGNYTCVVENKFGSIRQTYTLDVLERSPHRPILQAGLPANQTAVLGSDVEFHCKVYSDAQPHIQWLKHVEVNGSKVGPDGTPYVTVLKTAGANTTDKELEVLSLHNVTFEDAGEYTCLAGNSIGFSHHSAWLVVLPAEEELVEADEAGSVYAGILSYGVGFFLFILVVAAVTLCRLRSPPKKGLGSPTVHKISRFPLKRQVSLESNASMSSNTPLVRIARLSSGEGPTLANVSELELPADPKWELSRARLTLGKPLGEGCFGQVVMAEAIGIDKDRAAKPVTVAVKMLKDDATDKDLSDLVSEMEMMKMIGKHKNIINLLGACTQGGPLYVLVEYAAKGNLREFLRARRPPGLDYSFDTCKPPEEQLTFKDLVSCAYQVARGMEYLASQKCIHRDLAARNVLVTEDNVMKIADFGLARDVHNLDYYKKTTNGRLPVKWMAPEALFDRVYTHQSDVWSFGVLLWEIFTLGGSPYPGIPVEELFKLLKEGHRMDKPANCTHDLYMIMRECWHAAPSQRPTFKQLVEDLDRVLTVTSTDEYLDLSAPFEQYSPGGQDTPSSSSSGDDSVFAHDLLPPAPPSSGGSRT
Chain of Fyn (P06241 whole entry, looked up): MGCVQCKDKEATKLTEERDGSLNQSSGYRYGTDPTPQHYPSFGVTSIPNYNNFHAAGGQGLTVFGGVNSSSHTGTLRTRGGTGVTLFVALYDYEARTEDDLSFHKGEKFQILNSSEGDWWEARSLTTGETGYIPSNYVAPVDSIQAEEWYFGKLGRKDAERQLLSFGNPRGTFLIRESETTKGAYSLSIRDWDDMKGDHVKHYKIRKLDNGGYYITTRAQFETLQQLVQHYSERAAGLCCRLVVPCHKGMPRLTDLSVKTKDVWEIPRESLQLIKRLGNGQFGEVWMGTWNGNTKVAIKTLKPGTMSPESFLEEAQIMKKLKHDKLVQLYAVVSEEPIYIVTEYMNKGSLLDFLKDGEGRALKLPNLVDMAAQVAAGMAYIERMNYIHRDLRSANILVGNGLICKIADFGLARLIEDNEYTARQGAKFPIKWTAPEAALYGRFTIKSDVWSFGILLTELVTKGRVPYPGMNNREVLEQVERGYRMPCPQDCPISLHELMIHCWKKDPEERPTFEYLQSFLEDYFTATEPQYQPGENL
Chain of EPHB1 (P54762 whole entry, looked up): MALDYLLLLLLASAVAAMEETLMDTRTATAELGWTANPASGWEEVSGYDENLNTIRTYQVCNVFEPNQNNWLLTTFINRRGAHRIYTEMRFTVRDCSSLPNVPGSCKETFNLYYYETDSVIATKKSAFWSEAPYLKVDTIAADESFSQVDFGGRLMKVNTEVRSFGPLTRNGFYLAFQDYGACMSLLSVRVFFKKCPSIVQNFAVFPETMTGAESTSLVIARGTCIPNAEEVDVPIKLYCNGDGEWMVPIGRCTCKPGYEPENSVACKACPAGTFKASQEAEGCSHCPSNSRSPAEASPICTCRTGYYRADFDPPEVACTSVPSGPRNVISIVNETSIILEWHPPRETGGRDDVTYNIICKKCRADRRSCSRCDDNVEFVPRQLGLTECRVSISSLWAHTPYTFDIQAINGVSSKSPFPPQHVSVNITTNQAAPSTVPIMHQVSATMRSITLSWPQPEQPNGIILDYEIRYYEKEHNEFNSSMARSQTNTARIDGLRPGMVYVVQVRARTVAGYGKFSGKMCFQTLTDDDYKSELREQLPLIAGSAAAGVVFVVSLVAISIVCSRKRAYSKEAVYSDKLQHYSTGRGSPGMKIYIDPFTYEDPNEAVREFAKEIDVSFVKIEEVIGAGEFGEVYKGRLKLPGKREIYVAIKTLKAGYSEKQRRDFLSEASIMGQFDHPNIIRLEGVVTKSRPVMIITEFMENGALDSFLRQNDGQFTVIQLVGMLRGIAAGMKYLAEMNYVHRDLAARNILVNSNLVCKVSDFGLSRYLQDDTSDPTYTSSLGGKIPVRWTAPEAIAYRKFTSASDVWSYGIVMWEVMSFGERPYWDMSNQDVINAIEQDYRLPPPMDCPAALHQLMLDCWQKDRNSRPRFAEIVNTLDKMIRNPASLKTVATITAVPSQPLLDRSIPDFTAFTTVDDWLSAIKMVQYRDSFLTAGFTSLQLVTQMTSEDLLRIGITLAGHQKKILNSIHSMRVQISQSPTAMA
Chain of FGFR1 (P11362 whole entry, looked up): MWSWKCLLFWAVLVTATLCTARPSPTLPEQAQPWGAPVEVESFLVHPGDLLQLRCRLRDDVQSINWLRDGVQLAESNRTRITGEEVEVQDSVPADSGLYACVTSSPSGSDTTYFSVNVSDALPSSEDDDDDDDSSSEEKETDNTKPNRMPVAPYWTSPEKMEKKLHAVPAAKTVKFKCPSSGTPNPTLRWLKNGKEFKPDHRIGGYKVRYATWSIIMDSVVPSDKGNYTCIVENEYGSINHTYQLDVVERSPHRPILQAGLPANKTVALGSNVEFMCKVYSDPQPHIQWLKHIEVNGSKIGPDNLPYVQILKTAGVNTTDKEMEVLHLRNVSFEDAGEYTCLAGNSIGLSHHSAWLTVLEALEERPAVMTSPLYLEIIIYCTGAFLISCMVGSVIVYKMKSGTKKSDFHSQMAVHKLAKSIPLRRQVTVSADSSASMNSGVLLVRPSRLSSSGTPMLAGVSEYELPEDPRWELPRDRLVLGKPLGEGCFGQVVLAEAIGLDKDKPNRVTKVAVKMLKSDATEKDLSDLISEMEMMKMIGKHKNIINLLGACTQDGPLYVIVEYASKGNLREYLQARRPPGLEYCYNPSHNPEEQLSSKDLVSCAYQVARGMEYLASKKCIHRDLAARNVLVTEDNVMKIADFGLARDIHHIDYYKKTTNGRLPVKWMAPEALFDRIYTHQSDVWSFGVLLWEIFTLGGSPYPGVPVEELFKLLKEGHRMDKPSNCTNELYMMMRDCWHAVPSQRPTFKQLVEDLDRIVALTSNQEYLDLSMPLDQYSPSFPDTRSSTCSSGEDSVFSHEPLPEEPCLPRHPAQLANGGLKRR

Sequence	phosphorylation enrichment [1]	phosphorylation enrichment [2]	phosphorylation enrichment [3]	phosphorylation enrichment [4]	phosphorylation enrichment [5]	phosphorylation enrichment [6]	phosphorylation enrichment [7]	phosphorylation enrichment [8]	phosphorylation enrichment [9]	phosphorylation enrichment [10]	phosphorylation enrichment [11]	phosphorylation enrichment [12]	phosphorylation enrichment [13]	SH2 binding enrichment [14]	SH2 binding enrichment [15]	SH2 binding enrichment [16]
FFRDGHMPRQF [GSS_Y270_Y270H_YF]	0.392	0.374	0.487	0.357	0.363	0.367	0.491	0.505	0.472	0.355	0.324	0.612	0.365	0.494	0.611	0.741
FFRKVYHLASV [RBL1_Y796_YF]	0.46	0.491	0.545	0.337	0.415	0.439	0.713	0.581	0.697	0.374	0.36	0.781	0.503	0.667	0.721	0.979
FGAHNHHPLPV [OAT_Y55_Y55H_YF]	0.386	0.369	0.694	0.457	0.54	0.393	0.583	0.579	0.58	0.505	0.496	0.636	0.477	0.818	1.14	1.03
FGGLRYGFGGL [KRTAP20-2_Y13_V17G_YF]	0.672	0.389	0.536	0.465	0.448	0.445	0.664	0.553	0.739	0.431	0.37	1.08	0.379	0.601	0.762	0.903
FGMSTYITRED [FNDC3B_Y180_YF]	0.581	0.676	0.676	0.743	0.45	0.776	0.95	0.693	0.961	0.533	0.437	1.11	0.692	0.563	0.745	0.802
FGSRLYKFAFK [FANCD2_Y458_L456R_YF]	0.399	0.433	0.484	0.439	0.557	0.354	0.582	0.456	0.571	0.311	0.406	0.651	0.515	0.568	0.583	0.877
FHLGKYLQEVL [KLB_Y910_Y906H_YF]	0.415	0.346	0.788	0.591	0.514	0.415	1.36	1.01	1.58	0.48	0.428	1.52	0.491	0.49	0.935	0.706
FHLLPYTIRAM [PARS2_Y93_V95I_YF]	0.547	0.5	0.533	0.541	0.588	0.504	0.708	0.621	0.825	0.454	0.373	0.972	1.02	1.55	1.62	1.66
FKDFFYCWNTF [AICDA_Y146_YF]	0.749	0.618	1.09	0.624	0.804	0.862	1.73	1.19	1.87	1.41	2.55	1.93	1.25	0.423	0.631	0.696
FKEQGYHRLPP [RIN1_Y681_YF]	0.58	0.457	0.528	0.456	0.298	0.561	0.877	0.345	0.441	0.363	0.377	0.679	0.37	0.742	0.77	0.94
FKEVVYQAMEE [TACC3_Y684_E680K]	0.771	2.37	0.884	1.66	0.814	1.06	1.04	1.11	1.55	0.829	1.62	1.05	2.88	0.918	0.994	0.774
FLNSSYINIST [IL23R_Y178_T175N_YF]	0.464	0.438	0.676	0.471	0.368	0.338	0.663	0.383	0.652	0.367	0.415	0.746	0.317	4.35	1.69	25
FLTLHYDAKPQ [ANG_Y38_Q36L]	0.532	0.449	0.575	0.462	0.426	0.505	0.669	0.501	0.912	0.328	0.301	0.983	0.312	0.653	0.844	0.783
FMCKVYSDPQP [FGFR1_Y280]	0.543	0.516	0.863	0.578	0.701	0.752	1.3	0.99	1.41	0.591	0.425	1.64	0.664	0.439	0.511	0.733
FMKEPYIQSRF [HIPK4_Y175_V171M_YF]	0.372	0.332	0.449	0.393	0.412	0.257	0.807	0.548	0.54	0.275	0.452	0.643	0.474	0.57	0.687	0.964
FMYKVYSDPQP [FGFR1_Y280_C277Y]	0.461	0.526	0.642	0.569	0.799	0.778	0.819	0.521	1.03	0.532	0.5	1.16	0.495	0.768	0.854	0.8

— the supplement of paper PMC10065799, “High-throughput profiling of sequence recognition by tyrosine kinases and SH2 domains using bacterial peptide display” (eLife, 2023)
